From patent publication US5935824A, “Protein expression system” (Technologene, Inc., priority 1996, dated 1999)
No end group written: not given here.

Legend:
[1] = molecular target: T1, carboxypeptidase Y (CPD-Y) immobilized to Acti-Disk (Saccharomyces cerevisiae, UniProt P00729); assay: Flow digestion of control peptide through CPD-Y immobilized on Acti-Disk, HPLC analysis; assay type: biochemical, yeast
T1 construct: purchased Sigma
T1 sequence (P00729 112-532): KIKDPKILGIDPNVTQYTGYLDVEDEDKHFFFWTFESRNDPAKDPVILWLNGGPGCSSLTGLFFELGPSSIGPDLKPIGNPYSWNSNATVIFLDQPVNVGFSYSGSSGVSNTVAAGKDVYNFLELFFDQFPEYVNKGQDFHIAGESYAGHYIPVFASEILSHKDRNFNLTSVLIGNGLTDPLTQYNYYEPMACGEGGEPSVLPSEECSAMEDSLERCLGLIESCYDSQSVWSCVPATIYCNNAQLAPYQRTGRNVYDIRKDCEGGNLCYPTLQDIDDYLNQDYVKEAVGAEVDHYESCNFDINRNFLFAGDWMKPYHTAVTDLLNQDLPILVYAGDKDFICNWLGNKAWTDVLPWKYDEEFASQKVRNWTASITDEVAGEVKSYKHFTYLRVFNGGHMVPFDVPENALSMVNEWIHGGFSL
Experimental: To achieve limited, specific digestion of the control peptide (i.e., removal of the phenylalanine residue only) approximately 4 mg of CPD-Y (Sigma) was immobilized to a pre-activated (GTA) Acti-Disk Cartridge (25 mm; Arbor Technologies). The silicon-based matrix within the Acti-Disk is described in U.S. Pat. No. 3,862,030, the disclosure of which is herein incorporated by reference. Essentially, this matrix is a microporous fluid-permeable filter that has finely divided hydrophilic filler particles dispersed throughout a microporous matrix which are capable of binding large amounts of protein or enzyme. The matrix has an extremely large surface area (80 m^2 /gram) attributed to a large number of interconnected pores of non-uniform size distribution. The matrix is 60% porous and is commercially available in a wide variety of sizes and thicknesses for scale-up. This matrix represents a limited-diffusional matrix.
Immobilization of CPD-Y to the Acti-Disk cartridge was accomplished by recirculating 10 mls of a solution containing 1 mg/ml CPD-Y in 100 mM Na Citrate (pH 6.0) through the Acti-Disk according to the manufacturers protocol for 90 minutes at room temperature. The OD280 of the CPD-Y solution was measured before and after the immobilization procedure. The disk was washed extensively with 100 mM Tris-HCl (pH 8.0), 500 mM NaCl buffer until no protein was detected in the wash. The final concentration of enzyme per available fluid volume within the disk (65 nmoles/115 μl) was 0.565 mM (35 mg/ml). The porous nature of the Acti-Disk matrix immobilizes the carboxypeptidase enzyme on the […] of the matrix allowing a more consistent exposure of the substrate to enzyme than do the traditional cross linked agarose matrixes.
The control peptide (SEQ ID NO:70), at a concentration of 100 μg/ml, was passed through the CPD-Y Disk at flow rates ranging from 4 ml/min to 100 μl/min; a […] pump (Pharmacia) was used to regulate the flow. A 2 ml sample of the flow digestion at 4 ml/min was collected. The setting on the peristaltic pump was changed to 3 ml/min and the reaction was allowed to equilibrate. Five milliliters of the solution containing the control peptide processed at the lower flow rate (3 ml/min) was allowed to pass through the exit tubing before another 2 ml sample was collected. This procedure was repeated at each designated flow rate. An aliquot (25 μl) of each sample was run on the Hytach protein column as described above. In Table 4 the time refers to time spent in the reaction chamber (i.e., the Acti-Disk).
This value was determined by comparing the initial velocity of the control peptide CPD-Y-Acti-Disk flow digestion to the manufacturer's specific activity for free enzyme (i.e., enzyme present in solution) through the use of the Michaelis-Menton rate equation. The specific activity for Phe-Ala substrate 100 μmoles/mg (Sigma) was converted to activity by multiplying by the amount of enzyme immobilized within the Acti-Disk matrix (4 mg). […] This value compares well to the value that can be approximated from the Kcat data provided by Kuhn. The Kcat value for the cleavage of the Ser-Phe bond by free CPD-Y can be deduced from Kuhn's data to be approximately 400/min and this value was used to calculate the maximum initial velocity (Vo at [S]=79 μM) for 100% activity of the immobilized enzyme. […] 100% activity (Vo) for 79 μM flow digestion experiments is calculated using the theoretical KM =0.69 mM deduced from Kuhn's data, Vo=23.2 mM/min. Initial velocity Vo for control peptide flow experiments were determined by plotting μM of product produced versus seconds of incubation within the immobilization matrix of the Acti-Disk (see FIG. 29).
In FIG. 29, the log ([S]/[S]-[P]) (in μM) is plotted against the incubation time (in seconds). For the results shown in FIG. 29, the following calculations apply: the 4000 μl/min flow rate through 115 μl reaction matrix equals 1.73 seconds within the matrix. […]

[2] = molecular target: T2, CPD-Y immobilized on cross-linked agarose (Saccharomyces cerevisiae, UniProt P00729); assay: Recirculating digestion of control peptide over CPD-Y/agarose column, HPLC; assay type: biochemical, yeast; conditions: 100 μg/ml in PBS pH 6.5; gravity flow
T2 construct: purchased Pierce
T2 sequence (P00729 112-532): T1 sequence (P00729 112-532)
Experimental: Ten milliliters of a solution containing 100 μg/ml of the control peptide in PBS (pH 6.5) was repeatedly passed through 1 ml of a matrix consisting of CPD-Y immobilized on cross-linked agarose (12.5 U/ml, Pierce). The 10 ml sample was applied to the top of a 1.0 cm Affinica column (Schleicher & Schuell) containing 1.0 ml of the immobilized CPD-Y/agarose and allowed to flow by gravity. An aliquot (100 μl) of the digestion reaction were taken and the remaining sample was reapplied to the column as the previous sample approached the matrix (i.e., the sample was recirculated through the column). Aliquots (100 μl) were removed after 1, 5, 11 and 17 passes over the immobilized CPD-Y/agarose column; 20 μl of these aliquots were analyzed by high pressure liquid chromatography (HPLC) using a TFA/acetonitrile gradient and a C-18 column (Hytach protein column). A Shimadzu HPLC spectrophotometer equipped with a UV recorder was adjusted to analyze the digestion products at 210 nm. The following buffers were used for the HPLC analysis. Buffer A consisted of 1.125% TFA and Buffer B consisted of 1.0% TFA in 80% acetonitrile. To achieve separation of the peptides produced by CPD-Y digestion of the control peptide, a gradient of 0-30% B buffer was applied over a 30 minute period.

[3] = molecular target: T1, carboxypeptidase Y (CPD-Y) immobilized to Acti-Disk; conditions: free CPD-Y; deduced from Kuhn; cited from earlier work
[4] = molecular target: T1, carboxypeptidase Y (CPD-Y) immobilized to Acti-Disk; assay: Flow digestion of Lys-Lys peptide through CPD-Y Acti Disk, modified ninhydrin assay; assay type: biochemical, yeast; conditions: 400 μM peptide; pH 5.75; flow 2 ml/min and 500 μl/min
Experimental: The peptide sequence is […](SEQ ID NO:73) (Sigma; herein after referred to as the Lys-Lys peptide). Analysis of the of the reaction rates required the use of a modified ninhydrin assay developed by Doi, et al. for the analysis of peptidase activity [Anal. Biochem. 118:173 (1981)]. Compared to the ninhydrin assays described above, the pH of the ninhydrin solution is reduced (pH=4.6) and the heating time is shortened (less than or equal to 20 minutes) such that only free amino acids react at appreciable rates. Incubation times were strictly controlled by performing incubation at elevated temperatures in a programmable thermocycler (Hybaid).
The Lys-Lys peptide was suspended at a concentration of 400 μM in 100 mM Citrate buffer, 100 mM NaCl, pH 5.75 and subjected to flow digestions at 2 ml/min and 500 μl/min. The amount of free lysine released was quantified by mixing 200 μl of flow sample with 200 μl 0.2 M NaCitrate, pH 4.6 and 100 μl of 2.5% ninhydrin in methyl cellusolve (Sigma), 0.03% ascorbic acid. […] The OD570 was determined and the values were converted to μM of product in order to determine the first order rate constant for the Lys-Lys bond in the CPD-Y Acti Disk flow digestion (k=0.160). This is the same value determined for the N-CBZ-Gly-Pro dipeptide. […]

## ALKDAQTNSSSF [control peptide]
[1]; 79 μM control peptide, initial slope of fitted curve
  Initial reaction rate (Vo), observed: ~3.6 mM/min
[1]; 100 μg/ml, single pass, flow rate 500 μl/ml (so in the source)
  Cleavage of the ultimate bond (Ser-Phe): 86%
[1]; 5 ml recirculated 20 minutes at the same flow rate
  Cleavage of the ultimate bond (Ser-Phe): 96%
[1]; Kcat 400/min × 0.565 mM enzyme
  Vmax for 100% activity: 226 mM/min
[1]; [S]=79 μM, theoretical KM 0.69 mM
  Vo for 100% activity of the immobilized enzyme: 23.2 mM/min
[1]; control peptide 100 μg/ml, flow rate 0.25 ml/min, 27.6 sec in Acti-Disk
  Product: 72 µM
[1]; control peptide 100 μg/ml, flow rate 0.25 ml/min, 27.6 sec in Acti-Disk, 0.46 min
  % Product Remaining: 8.3%
[1]; flow rate 0.50 ml/min, 13.8 sec
  Product: 68 µM
[1]; flow rate 0.50 ml/min, 13.8 sec, 0.23 min
  % Product Remaining: 14.0%
[1]; flow rate 1.0 ml/min, 6.9 sec
  Product: 59 µM
[1]; flow rate 1.0 ml/min, 6.9 sec, 0.115 min
  % Product Remaining: 25.6%
[1]; flow rate 1.5 ml/min, 4.6 sec
  Product: 54 µM
[1]; flow rate 1.5 ml/min, 4.6 sec, 0.0766667 min
  % Product Remaining: 32.4%
[1]; flow rate 2.0 ml/min, 3.45 sec
  Product: 48 µM
[1]; flow rate 2.0 ml/min, 3.45 sec, 0.0575 min
  % Product Remaining: 38.7%
[1]; flow rate 2.5 ml/min, 2.76 sec
  Product: 45 µM
[1]; flow rate 2.5 ml/min, 2.76 sec, 0.046 min
  % Product Remaining: 42.8%
[1]; flow rate 3.0 ml/min, 2.3 sec
  Product: 43 µM
[1]; flow rate 3.0 ml/min, 2.3 sec, 0.0383333 min
  % Product Remaining: 46.4%
[1]; flow rate 4.0 ml/min, 1.73 sec
  Product: 39 µM
[1]; flow rate 4.0 ml/min, 1.73 sec, 0.0288333 min
  % Product Remaining: 51.5%
[1]; recirculation at 500 μl/min
  Cleavage of the second bond (Ser-Ser): not detectably cleaved
[1]; varied flow rate and substrate concentration
  Control peptide molecules with carboxy-terminal phenylalanine removed: approximately 96%
[2]
  Passes needed to substantially decrease the amount of full length peptide: > 15 passes
[3]
  Estimated Km for the Ser-Phe bond: 690 µM
  Kcat for the Ser-Phe bond: 6.67 s⁻¹

## PLSRLSVAKK [Lys-Lys peptide]
[4]
  First order rate constant for the Lys-Lys bond (k): 0.160
